The labels stand for the following.
B1: Ubiquitin-protein ligase residues 30 to 86; numbered along this chain, Q05086 (parent)
chain: KHLIERYYHQLTEGCGNEACTNEFCASCPTFLRMDNNAAAIKALELYKINAKLCDPH

This passage reports abundance fitness results from the Human Domainome abundance scans (Beltran et al. 2025).

± gives the uncertainty stated by the source.

The variants in this data set derive from B1. Put plainly: abundance fitness (aPCA) (normalised: wild type 0, dead -1); higher = more abundant; growth selection in yeast, the domain comes from the species named. The conditions noted are these: Homo sapiens.
For the variant KHLIERYYHQLTEGCGNEACTNEFCASCPTFLRMDNNAAAIKALELYKINAKLYDPH [C54Y], the abundance fitness is -0.94 ± 0.25.

For KHLIERYYHQLTEGCGNEACTNEFCASCYTFLRMDNNAAAIKALELYKINAKLCDPH [P29Y], the abundance fitness was -0.191 ± 0.22.

Take KHLIERYYHQLTEGCGNEACTNEFCASCLTFLRMDNNAAAIKALELYKINAKLCDPH [P29L]: the abundance fitness was -0.149 ± 0.11.

As for KHLIERYYHQLTEGCGNEACTNPFCASCPTFLRMDNNAAAIKALELYKINAKLCDPH [E23P], the abundance fitness was -0.105 ± 0.087.

Consider KHLIERYYHQLTEGCGNEACTNRFCASCPTFLRMDNNAAAIKALELYKINAKLCDPH [E23R], for which the abundance fitness is -0.045 ± 0.055.

With KHLIERYYHQLTEGCGNEACTNEFCASCPLFLRMDNNAAAIKALELYKINAKLCDPH [T30L], the abundance fitness was -0.083 ± 0.075.

On to KHLIERYYHQLTEGCGNEACTNEFCASCPDFLRMDNNAAAIKALELYKINAKLCDPH [T30D], for which the abundance fitness is -0.071 ± 0.12.

In the case of KHLIERYYHQLTEGCGNEACTNEFCASCPPFLRMDNNAAAIKALELYKINAKLCDPH [T30P], the abundance fitness is -0.097 ± 0.11.

Consider KHLIERYYHQLTEGCGNEACTNEFCASCPTFLRMDNNAAAIKALELYHINAKLCDPH [K48H], for which the abundance fitness was -0.111 ± 0.15.

Turning to KHLIERYYHQLTEGCGNEACTNEFCASCPTFLRMDNNAAAIKALELYLINAKLCDPH [K48L], the abundance fitness is -0.388 ± 0.061.

For KHLIERYYHQLTEGCGNEACTNEFCASCPTFLRMDNNAAAIKALELYKINARLCDPH [K52R], the abundance fitness is -0.052 ± 0.17.

For the variant KHLIERYYHQLTEGCGNEACTNEFCASCPTFLRMDNNAAAIKALELYKINASLCDPH [K52S], the abundance fitness is -0.31 ± 0.33.

KHIIERYYHQLTEGCGNEACTNEFCASCPTFLRMDNNAAAIKALELYKINAKLCDPH [L3I]: the abundance fitness was -0.039 ± 0.092.

On to KHQIERYYHQLTEGCGNEACTNEFCASCPTFLRMDNNAAAIKALELYKINAKLCDPH [L3Q], for which the abundance fitness came to 0.014 ± 0.083.

In the case of KHLIERYYHQLTEGCGNEACTNEFCASCPTFLRMDNNAAAIKALELRKINAKLCDPH [Y47R], the abundance fitness is 0.05 ± 0.052.

Regarding KHLIERYYHQLTEGCGNEACTNEFCASCPTFLRMDNNAAAIKALKLYKINAKLCDPH [E45K], the abundance fitness is -0.129 ± 0.11.

Take KHLIERYYHQLTEGCGNEACTNEFCASCPTFLRMDNNAAAIKALQLYKINAKLCDPH [E45Q]: the abundance fitness is -0.129 ± 0.1.

As for KHLIERYYHQLTENCGNEACTNEFCASCPTFLRMDNNAAAIKALELYKINAKLCDPH [G14N], the abundance fitness was -0.849 ± 0.15.

On to KHLIERYYHQLTEQCGNEACTNEFCASCPTFLRMDNNAAAIKALELYKINAKLCDPH [G14Q], for which the abundance fitness is -1.09 ± 0.12.

On to KHLIERYYHQLTEGCGNEACENEFCASCPTFLRMDNNAAAIKALELYKINAKLCDPH [T21E], for which the abundance fitness was found to be 0.043 ± 0.07.

In the case of KHLIERYYHQLTEGCGNEACDNEFCASCPTFLRMDNNAAAIKALELYKINAKLCDPH [T21D], the abundance fitness was -0.011 ± 0.08.

As to KHLIERYYHQLTEGCGNEACTNEFCASCPTFLRMDNNAAAIKARELYKINAKLCDPH [L44R], the abundance fitness worked out at 0.074 ± 0.051.

In the case of KHLIERYYHQLTEGCGNEACTNEFCASCPTFLRMDNNAAAIKACELYKINAKLCDPH [L44C], the abundance fitness was -0.032 ± 0.12.

As to KHLIERYYHQLTEGNGNEACTNEFCASCPTFLRMDNNAAAIKALELYKINAKLCDPH [C15N], the abundance fitness was -0.981 ± 0.12.

As for KHLIERYYHQLTEGDGNEACTNEFCASCPTFLRMDNNAAAIKALELYKINAKLCDPH [C15D], the abundance fitness was -0.796 ± 0.1.

With KHLIERYYHQLTEGCGNEACTNEFCASTPTFLRMDNNAAAIKALELYKINAKLCDPH [C28T], the abundance fitness was -0.07 ± 0.067.

Take KHLIERYYHQLLEGCGNEACTNEFCASCPTFLRMDNNAAAIKALELYKINAKLCDPH [T12L]: the abundance fitness is -0.015 ± 0.056.

Consider KHLIERYYHQLTEGCGNEACTNEFCASCPTFLRMDNNAAAIKPLELYKINAKLCDPH [A43P], for which the abundance fitness is -0.467 ± 0.078.

For KHLIERYYHQLTEGCGNEACTNEFCASCPTFLRMDNNAAAIKVLELYKINAKLCDPH [A43V], the abundance fitness is -0.221 ± 0.057.

As for KHLIERYYHQLTEGCGNEACTNEFCASCPTFLRMDLNAAAIKALELYKINAKLCDPH [N36L], the abundance fitness was -0.005 ± 0.081.

In the case of KHLIERYYHQLTEGCGNEACTNEFCASCPTFLRMDRNAAAIKALELYKINAKLCDPH [N36R], the abundance fitness came to 0.055 ± 0.067.

For the variant KHLIERYYHQLTEGCGNEACTNEFCASCPTFLRMDNNAKAIKALELYKINAKLCDPH [A39K], the abundance fitness was -0.175 ± 0.11.

KHLIERYYHQLTEGCGNEACTNEFCASCPTFLRMDNNAAAIKALELYKINAKLCDPC [H57C]: the abundance fitness worked out at 0.175 ± 0.2.

Regarding KHLIERYYHQLTEGCGNEACTNEFCASCPTFLRMDNNAAAIKALELYKINAKLCDPI [H57I], the abundance fitness is -0.408 ± 0.43.

On to KHLIERYYHQLTEGCGNEACTNEFCASCPTFLRMDNNAAAIKALELYKINAKLCDPG [H57G], for which the abundance fitness stood at 0.013 ± 0.16.

KHLIERYYHQLTEGCGNEACTNEFCASCPTFLRMDNNAAAIKALELYKINAKLCDPV [H57V]: the abundance fitness was 0.173 ± 0.19.

As to KHLIERYYHQLTEGCGNEACTNEFCASCPTFLRMDNNAAAIKALELYKLNAKLCDPH [I49L], the abundance fitness was -0.043 ± 0.41.

Take KHLIERYYHQLTEGCGNMACTNEFCASCPTFLRMDNNAAAIKALELYKINAKLCDPH [E18M]: the abundance fitness was determined as 0.006 ± 0.09.

Regarding KHLIERYYHQLTEGCGNYACTNEFCASCPTFLRMDNNAAAIKALELYKINAKLCDPH [E18Y], the abundance fitness is -0.071 ± 0.11.

Consider KHLIERYYHQLTEGCGNEACTNEFCASCPTFLRMDNNAAAIKALELYKIAAKLCDPH [N50A], for which the abundance fitness was found to be 0.004 ± 0.076.

For the variant KHLIERYYHQLTEGCGNEACTNEFCASCPTFLRMDNNAAAIKALELYKIYAKLCDPH [N50Y], the abundance fitness was -0.018 ± 0.16.

As for KHLIERYYHQLTEGCGNEACTNEFCASCPTFLRMDNNAAAIKALELYKIHAKLCDPH [N50H], the abundance fitness is -0.05 ± 0.12.

For the variant KHLIERYYRQLTEGCGNEACTNEFCASCPTFLRMDNNAAAIKALELYKINAKLCDPH [H9R], the abundance fitness was found to be 0.025 ± 0.047.

Take KHLIERYYHQLTEGCGNEACTNEFVASCPTFLRMDNNAAAIKALELYKINAKLCDPH [C25V]: the abundance fitness is -0.891 ± 0.11.

As for KHLIERYYHQLTEGCGNEACTNEFCASCPTFLRPDNNAAAIKALELYKINAKLCDPH [M34P], the abundance fitness was -0.042 ± 0.12.

For the variant KHLIERYYHQLTEGCGNEACTNEFCASCPTFLRADNNAAAIKALELYKINAKLCDPH [M34A], the abundance fitness was -0.029 ± 0.072.

Regarding YHLIERYYHQLTEGCGNEACTNEFCASCPTFLRMDNNAAAIKALELYKINAKLCDPH [K1Y], the abundance fitness was -0.31 ± 0.36.
